T1: cynomolgus CD137 expressed on DO11.10 cells (DO11.10-cCD137) (cynomolgus monkey, UniProt Q07011 24-255 (human entry))
T1 chain: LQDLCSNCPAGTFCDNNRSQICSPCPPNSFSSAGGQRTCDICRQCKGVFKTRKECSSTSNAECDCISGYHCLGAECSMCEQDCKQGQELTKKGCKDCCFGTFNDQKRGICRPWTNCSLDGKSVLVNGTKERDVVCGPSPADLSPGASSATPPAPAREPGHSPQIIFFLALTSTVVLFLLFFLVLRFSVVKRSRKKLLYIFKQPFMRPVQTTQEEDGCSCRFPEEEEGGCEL

T2: human OX40 expressed on DO11.10 cells (DO11.10-hOX40) (human, UniProt P43489 29-277)
T2 sequence: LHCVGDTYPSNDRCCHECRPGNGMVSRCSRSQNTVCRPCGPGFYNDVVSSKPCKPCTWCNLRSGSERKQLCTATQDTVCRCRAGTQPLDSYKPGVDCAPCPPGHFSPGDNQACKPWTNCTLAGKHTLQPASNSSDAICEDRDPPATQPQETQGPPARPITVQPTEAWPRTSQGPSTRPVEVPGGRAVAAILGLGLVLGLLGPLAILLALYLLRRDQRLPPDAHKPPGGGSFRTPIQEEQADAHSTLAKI

T3: cCD137-mFc-Avi (cynomolgus monkey)
T3 construct: 139 used; also called cyno CD137-mFc-Avi; recombinant cyno CD137
T3 chain: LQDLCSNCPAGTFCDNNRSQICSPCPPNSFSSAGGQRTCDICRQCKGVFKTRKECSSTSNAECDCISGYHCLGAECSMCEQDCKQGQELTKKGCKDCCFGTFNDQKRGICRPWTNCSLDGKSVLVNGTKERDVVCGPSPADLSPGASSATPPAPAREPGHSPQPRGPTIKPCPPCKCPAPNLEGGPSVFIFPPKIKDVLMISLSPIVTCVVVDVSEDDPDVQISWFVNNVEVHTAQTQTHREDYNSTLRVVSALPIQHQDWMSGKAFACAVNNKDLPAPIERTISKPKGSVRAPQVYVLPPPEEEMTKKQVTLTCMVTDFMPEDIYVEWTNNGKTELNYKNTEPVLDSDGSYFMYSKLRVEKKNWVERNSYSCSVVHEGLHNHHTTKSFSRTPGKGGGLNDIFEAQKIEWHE

T4: cynomolgus OX40 expressed on DO11.10 cells (DO11.10-cOX40) (cynomolgus, UniProt P43489 29-277 (human entry))
T4 chain: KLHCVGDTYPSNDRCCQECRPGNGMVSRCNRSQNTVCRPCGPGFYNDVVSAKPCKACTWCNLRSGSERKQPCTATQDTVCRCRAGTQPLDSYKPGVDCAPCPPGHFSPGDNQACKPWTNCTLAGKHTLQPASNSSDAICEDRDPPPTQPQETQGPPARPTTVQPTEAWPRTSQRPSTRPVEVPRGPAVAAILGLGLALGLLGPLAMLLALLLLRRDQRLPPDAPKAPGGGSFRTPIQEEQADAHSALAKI

T5: cOX40-mFc (cynomolgus)
T5 construct: Dimeric; also called cyno OX40-mFc
T5 chain: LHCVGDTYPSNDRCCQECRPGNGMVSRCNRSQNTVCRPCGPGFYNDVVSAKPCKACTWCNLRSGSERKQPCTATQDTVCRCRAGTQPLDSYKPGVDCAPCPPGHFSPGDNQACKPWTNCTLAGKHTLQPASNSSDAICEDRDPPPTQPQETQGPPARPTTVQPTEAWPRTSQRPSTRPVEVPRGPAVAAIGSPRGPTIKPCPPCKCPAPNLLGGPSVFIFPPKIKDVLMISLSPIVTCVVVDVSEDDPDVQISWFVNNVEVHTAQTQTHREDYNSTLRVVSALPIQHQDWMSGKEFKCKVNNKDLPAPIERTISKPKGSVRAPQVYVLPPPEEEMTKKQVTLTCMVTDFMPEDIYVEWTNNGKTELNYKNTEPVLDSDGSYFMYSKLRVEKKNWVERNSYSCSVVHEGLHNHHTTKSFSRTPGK

T6: hOX40-mFc (human)
T6 construct: Dimeric; also called human OX40-mFc
T6 chain: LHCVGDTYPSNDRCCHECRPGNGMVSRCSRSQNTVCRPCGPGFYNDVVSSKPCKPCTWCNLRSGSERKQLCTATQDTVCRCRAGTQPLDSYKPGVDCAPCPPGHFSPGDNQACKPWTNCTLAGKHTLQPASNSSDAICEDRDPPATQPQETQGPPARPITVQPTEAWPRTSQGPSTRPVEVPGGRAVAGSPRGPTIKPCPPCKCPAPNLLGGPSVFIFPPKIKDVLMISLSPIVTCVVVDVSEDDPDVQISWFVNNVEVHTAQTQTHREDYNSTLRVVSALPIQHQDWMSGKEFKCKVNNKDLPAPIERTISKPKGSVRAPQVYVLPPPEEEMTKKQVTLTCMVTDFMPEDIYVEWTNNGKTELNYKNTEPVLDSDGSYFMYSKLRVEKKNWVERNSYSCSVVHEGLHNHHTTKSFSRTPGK


How the values were obtained:
[1] = target: T1, cynomolgus CD137 expressed on DO11.10 …; assay: flow cytometry on DO11.10 cells expressing the target
Description: (§1) 50 μl of the antibody dilutions were added to the wells containing cells (final volume 100 μl) and incubated at 4° C. for 1 hour. […] The plates were washed and resuspended in 100 μl of PBS containing DAPI (Biotium, cat no 40043) at 1 μg/ml. The plates were analysed using a Canto II flow cytometer (BD Bioscience) and the data analysed using FlowJo. Dead cells were identified by their higher fluorescence on the UV (405 nm/450/50) channel and excluded from analysis. […] The GMFI data was fit using log (agonist) vs response (three parameters) in Graph Pad Prism Software to generate EC₅₀ values.

[2] = target: T7, human CD137 expressed on DO11.10 cells (DO11.10-hCD137) (human, UniProt Q07011 24-255); assay: as above
T7 construct: also called CD137 on human T cells
Description: as §1

[3] = target: T2, human OX40 expressed on DO11.10 cells …; assay: cell-based or functional assay
[4] = target: T7, human CD137 expressed on DO11.10 cells …; assay: cell-based or functional assay
Target sequence in this assay (Q07011 24-255): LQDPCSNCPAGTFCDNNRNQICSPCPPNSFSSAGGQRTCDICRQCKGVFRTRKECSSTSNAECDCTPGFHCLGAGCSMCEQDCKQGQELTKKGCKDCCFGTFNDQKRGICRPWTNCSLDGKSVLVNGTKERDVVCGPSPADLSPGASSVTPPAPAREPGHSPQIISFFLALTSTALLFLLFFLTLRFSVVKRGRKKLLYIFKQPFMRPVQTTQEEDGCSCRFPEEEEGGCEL

hCD137-mFc-Avi = target: T8, hCD137-mFc-Avi (human); assay: SPR, antibody captured via anti-human Fc, dimeric antigen flowed, 1:1 fit
T8 construct: Dimer; a biotinylated version was used where the text says so; also called human CD137-mFc-Avi; hCD137-mFc-Avi-Bio
Description: (§2) For CD137 affinity determination, a Biacore CM5 chip (GE Healthcare) was coated with anti-human Fc using a Human Antibody Capture Kit (GE Healthcare) according to manufacturer's conditions, to a surface density of approximately 4000 RU. […] Human or cynomolgus CD137 (hCD137-mFc-Avi or cCD137-mFc-Avi) was flowed over at a range of concentrations in a three-fold dilution series starting at 200 nM, at a flow rate of 70 μl/min. The association time was 2 min and the dissociation time was 8 min. Running buffer was HBS-EP (GE Healthcare BR100188). Flow cells were regenerated by injecting 3M magnesium chloride at a flow rate of 30 μl/min for 30 seconds.
(§3) The binding kinetics were fit with a 1:1 Langmuir model to generate binding association (kₐ) and dissociation (kd) rates. Equilibrium binding constants (KD) were calculated by dividing the dissociation rate by the association rate for each sample. Data analysis was performed with BiaEvaluation software version 3.2.

cCD137-mFc-Avi = target: T3, cCD137-mFc-Avi; assay: as above
Description: as §2, §3

[5] = target: T4, cynomolgus OX40 expressed on DO11.10 …; assay: flow cytometry on DO11.10 cells expressing the target
Description: as §1

[6] = target: T2, human OX40 expressed on DO11.10 cells …; assay: as above
Description: as §1

cOX40-mFc = target: T5, cOX40-mFc; assay: SPR, antibody captured via anti-human Fab, dimeric antigen flowed, 1:1 fit
Description: (§4) For OX40 affinity determination a Biacore CM5 chip was coated with anti-human Fab using a Human Fab Capture Kit (GE Healthcare 28958325) according to manufacturer's conditions, to a surface density of approximately 8000 RU. […] The association time was 2 min and the dissociation time was 8 min. Running buffer was HBS-EP. Flow cells were regenerated by injecting glycine-HCl at pH 2.1 at a flow rate of 30 μl/min for 30 seconds.
as §3

hOX40-mFc = target: T6, hOX40-mFc; assay: as above
Description: as §4, §3

| binding result [1] | binding result [2] | SEA assay (PBMC), hIL-2 max response, crosslinked [3] [pg/mL] | SEA assay (PBMC), hIL-2 max response, no crosslinker [3] [pg/mL] | SEA assay (PBMC), hIL-2 release EC50, crosslinked [3] [nM] | SEA assay (PBMC), hIL-2 release EC50, no crosslinker [3] [nM] | EC50 of mIL-2 release, DO11.10-hCD137 assay, crosslinked [4] [nM] | Emax of mIL-2 release, DO11.10-hCD137 assay, crosslinked [4] [pg/mL] | Kd (hCD137-mFc-Avi) [nM] | Kd (cCD137-mFc-Avi) [nM] | EC50 [1] [nM] | EC50 [5] [nM] | EC50 [2] [nM] | EC50 [6] [nM] | Kd (cOX40-mFc) [nM] | Kd (hOX40-mFc) [nM] | Binder |
| --- | --- | --- | --- | --- | --- | --- | --- | --- | --- | --- | --- | --- | --- | --- | --- | --- |
| no binding | no binding | – | – | – | – | – | – | – | – | – | – | – | – | – | – | FS20-22-49AA/4420 (antibody, human IgG1, kappa, L234A L235A, also called OX40/FITC mock mAb^2; FS20-22-49 Fcab in mock (4420 LALA) mAb^2 format) heavy: EVKLDETGGGLVQPGRPMKLSCVASGFTFSDYWMNWVRQSPEKGLEWVAQIRNKPYNYETYYSDSVKGRFTISRDDSKSSVYLQMNNLRVEDMGIYYCTGSYYGMDYWGQGTSVTVSSASTKGPSVFPLAPSSKSTSGGTAALGCLVKDYFPEPVTVSWNSGALTSGVHTFPAVLQSSGLYSLSSVVTVPSSSLGTQTYICNVNHKPSNTKVDKKVEPKSCDKTHTCPPCPAPEAAGGPSVFLFPPKPKDTLMISRTPEVTCVVVDVSHEDPEVKFNWYVDGVEVHNAKTKPREEQYNSTYRVVSVLTVLHQDWLNGKEYKCKVSNKALPAPIEKTISKAKGQPREPQVYTLPPSRDEYWDQEVSLTCLVKGFYPSDIAVEWESNGDEQFAYKTTPPVLDSDGSFFLYSKLTVDQYRWNPADYFSCSVMHEALHNHYTQKSLSLSPG light: DVVMTQTPLSLPVSLGDQASISCRSSQSLVHSNGNTYLRWYLQKPGQSPKVLIYKVSNRFSGVPDRFSGSGSGTDFTLKISRVEAEDLGVYFCSQSTHVPWTFGGGTKLEIKRTVAAPSVFIFPPSDEQLKSGTASVVCLLNNFYPREAKVQWKVDNALQSGNSQESVTEQDSKDSTYSLSSTLTLSKADYEKHKVYACEVTHQGLSSPVTKSFNRGEC |
| – | – | 33900 | 34900 | 0.38 | 0.29 | 6.1 | 17000 | 0.342 | 0.318 | 0.0682 | 0.394 | 0.12 | 0.175 | 1.11 | 0.285 | FS20-22-49AA/FS30-10-3 (bispecific antibody, human IgG1, kappa, L234A L235A, V domains shown, IgG1 with LALA; also called OX40/CD137 mAb^2) VH: EVQLLESGGGLVQPGGSLRLSCAASGFTFSSYDMSWVRQAPGKGLEWVSDIDPTGSKTDYADSVKGRFTISRDNSKNTLYLQMNSLRAEDTAVYYCARDLNVYGFDYWGQGTLVTVSS VL: EIVLTQSPGTLSLSPGERATLSCRASQSVSSSYLAWYQQKPGQAPRLLIYGASSRATGIPDRFSGSGSGTDFTLTISRLEPEDFAVYYCQQSYSYPVTFGQGTKVEIKR |
| – | – | 23700 | 24900 | 2.33 | 1.36 | 9.5 | 17200 | 0.255 | 7.24 | 0.107 | 0.368 | 0.29 | 0.152 | 1.02 | 0.37 | FS20-22-49AA/FS30-10-12 (bispecific antibody, human IgG1, kappa, L234A L235A, V domains shown, IgG1 with LALA; also called OX40/CD137 mAb^2) VH: EVQLLESGGGLVQPGGSLRLSCAASGFTFSSYDMSWVRQAPGKGLEWVSDIDPTGSKTDYADSVKGRFTISRDNSKNTLYLQMNSLRAEDTAVYYCARDLTVYGFDYWGQGTLVTVSS VL: EIVLTQSPGTLSLSPGERATLSCRASQSVSSSYLAWYQQKPGQAPRLLIYGASSRATGIPDRFSGSGSGTDFTLTISRLEPEDFAVYYCQQSYSYPVTFGQGTKVEIKR |
| – | – | 30700 | 29200 | 0.5 | 0.51 | 13.4 | 18100 | 3.85 | 6.42 | 0.111 | 0.355 | 0.258 | 0.201 | 1.63 | 0.385 | FS20-22-49AA/FS30-5-37 (bispecific antibody, human IgG1, kappa, L234A L235A, V domains shown, IgG1 with LALA; also called OX40/CD137 mAb^2) VH: EVQLLESGGGLVQPGGSLRLNCAASGFTFSSYAMSWVRQAPGKGLEWVSAISGSGGSTYYADSVKGRFTISRDNSKNTLYLQMNSLRAEDTAVYYCARSYDKYWGSSIYSGLDYWGQGTLVTVSS VL: EIVLTQSPGTLSLSPGERATLSCRASQSVSSSYLAWYQQKPGQAPRLLIYGASSRATGIPDRFSGSGSGTDFTLTISRLEPEDFAVYYCQQYYSYYPVTFGQGTKVEIKR |

From patent US20220048996A1 (F STAR BETA, published 2022)
